Test results: article PMC9020777

Columns and labels:
Test in all cases: FRET or BRET
Details in all cases: remark: other sources report otherwise
[1] = molecular target: mCerulean3-BCL-2 (^CBCL-2) (human), P10415
[2] = molecular target: mCerulean3-BCL-2 (human), P10415
[3] = molecular target: mCerulean3-MCL-1 (human), Q07820
[4] = molecular target: mCerulean3-BCL-XL (human), Q07817
Chain of mCerulean3-BCL-XL (human), Q07817 (Q07817 whole entry): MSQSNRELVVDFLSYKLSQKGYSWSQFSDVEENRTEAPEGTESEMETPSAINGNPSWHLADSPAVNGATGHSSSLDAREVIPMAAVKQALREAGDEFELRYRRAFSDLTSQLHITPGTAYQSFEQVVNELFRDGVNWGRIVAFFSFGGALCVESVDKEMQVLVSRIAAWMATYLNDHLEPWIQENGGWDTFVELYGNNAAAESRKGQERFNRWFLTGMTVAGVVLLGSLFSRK

Chain of mCerulean3-BCL-2 (human), P10415 (P10415 whole entry): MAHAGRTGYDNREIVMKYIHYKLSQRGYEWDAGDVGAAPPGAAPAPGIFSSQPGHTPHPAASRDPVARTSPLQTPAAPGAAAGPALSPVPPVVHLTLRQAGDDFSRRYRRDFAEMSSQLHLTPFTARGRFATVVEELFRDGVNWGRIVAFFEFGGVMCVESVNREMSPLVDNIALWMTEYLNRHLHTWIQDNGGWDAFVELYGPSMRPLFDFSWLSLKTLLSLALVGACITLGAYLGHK
Chain of mCerulean3-BCL-2 (^CBCL-2) (human), P10415 (P10415 whole entry): as above
Chain of mCerulean3-MCL-1 (human), Q07820 (Q07820 whole entry): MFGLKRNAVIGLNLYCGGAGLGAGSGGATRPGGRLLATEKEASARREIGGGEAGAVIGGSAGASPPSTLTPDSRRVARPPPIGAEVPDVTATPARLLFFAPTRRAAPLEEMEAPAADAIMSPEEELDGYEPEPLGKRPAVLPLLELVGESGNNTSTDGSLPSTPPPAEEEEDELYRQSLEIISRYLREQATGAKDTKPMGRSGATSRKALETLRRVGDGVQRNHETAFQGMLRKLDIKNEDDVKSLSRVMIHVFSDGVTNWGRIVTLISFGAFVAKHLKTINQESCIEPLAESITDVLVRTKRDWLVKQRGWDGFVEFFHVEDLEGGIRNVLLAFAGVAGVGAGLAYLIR

| Binder | Kd [1] [µM] | Kd [2] [µM] | Kd [3] [µM] | Kd [4] [µM] |
| --- | --- | --- | --- | --- |
| Venus-NOXA (^VNOXA), Q13794 1-54 (natural protein) MPGKKARKNAQPSPARAPAELEVECATQLRRFGDKLNFRQKLLNLISKLFCSGT | 8 | – | – | – |
| Venus-BIK, Q13323 1-160 (natural protein) MSEVRPLSRDILMETLLYEQLLEPPTMEVLGMTDSEEDLDPMEDFDSLECMEGSDALALRLACIGDEMDVSLRAPRLAQLSEVAMHSLGLAFIYDQTEDIRDVLRSFMDGFTTLKENIMRFWRSPNPGSWVSCEQVLLALLLLLALLLPLLSGGLHLLLK | – | 3 | 6 | – |
| Venus-BAD, Q92934 1-168 (natural protein) MFQIPEFEPSEQEDSSSAERGLGPSPAGDGPSGSGKHHRQAPGLLWDASHQQEQPTSSSHHGGAGAVEIRSRHSSYPAGTEDDEGMGEEPSPFRGRSRSAPPNLWAAQRYGRELRRMSDEFVDSFKKGLPRPKSAGTATQMRQSSSWTRVFQSWWDRNLGRGSSAPSQ | – | 4 | – | 7 |
